Entries after “also recorded” stand apart in the source; their conditions may differ. Where two headings read alike, the source gives them in different places.

The values that follow come from patent US20160122405A1, “HOMEODOMAIN FUSION PROTEINS AND USES THEREOF” (priority 2013, published 2016).

The subject of test [1] is Hoxa9-Meis1 immortalized AML model cells. In words: Growth deficit of construct-transduced AML cells versus non-transduced cells in same well. The format is cell-based, murine. The settings on record: for Activity: activity based upon growth deficit versus non-transduced cells in same well, constructs retrovirally transduced into AML cells.
A further test addresses Sin3. In words: method not stated.
The subject of test [2] is Hoxa9-Meis1 murine AML cells. The format is in vivo, mice. To be noted: for Median Survival days: mouse, in vivo; for AML latency in vivo: versus vector control.
Test [3] has as its system Mac-1 (CD11b), Gr-1 and FLT3R expression. In words: Flow cytometry of cell surface markers after transduction. The format is cell-based, murine. The settings on record: 30 days.
The subject of test [4] is Hoxa9 target genes (SOX4, CD34, FLT3R, FOXP1, DNAJC10). In words: QPCR of direct Hoxa9 target genes in Hoxa9/Meis1 cells. The settings on record: 17 days after transduction, versus GFP control.
In test [5] the test system is differentiation-specific genes (S100A8, myeloperoxidase, neutrophil elastase). In words: QPCR of differentiation-specific genes in transduced Hoxa9-Meis1 cells. The format is cell-based. To be noted: Hoxa9-Meis1 murine cells, versus vector control.
Where [6] appears, read: Hoxa9-Meis1 cells, retroviral expression.
Setting [7] is: listed as 3X glycine linker repressor construct.

On to “S2 mutant: S2 with DNA base contact residues of HFP domain mutated to alanine, SEQ ID NO: 32 (DPERQVKAWFAARRAKMKKINGGDPVSQVSAWFGAKRIAYKKNI)”, for which the “growth phenotype (growth deficit / growth inhibition)” value in test [1] is reported as “less growth inhibition”.

The molecule “wild-type SID (Sin3-interacting domain of Mad1 protein) (from UniProt Q05195 5-29) (peptide)” gave a Kd in the test with Sin3 of 70 nM.

B1: Fusion protein 4: SID-3XNLS-HFP, SID of SEQ ID NO: 13, SEQ ID NO: 39 (protein)
chain: MVGMNIQLLLEAADYLERRERGGDPKKKRKVDPKKKRKVDPKKKRKVGGDPERQVKIWFQNRRMKMKKINGGGDPVSQVSNWFGNKRIRYKKNIG
B1: the Activity result in test [1] is reported as “✓”.

B2: Fusion protein 3: SID-3XNLS-HFP, SID of SEQ ID NO: 12, SEQ ID NO: 38 (protein)
chain: MVGMNIQLLLEAADYLERREREAEHGGDPKKKRKVDPKKKRKVDPKKKRKVGGDPERQVKIWFQNRRMKMKKINGGGDPVSQVSNWFGNKRIRYKKNIG
As to B2, the Activity result in test [1] is recorded as “✓”.

B3: S1: SID-3XNLS-GG linker-HoxA9-G-PBX fusion protein, SEQ ID NO: 28 (protein)
chain: MATAVGMNIQLLLEAADYLERREREAEHGYASMLPYDPKKKRKVDPKKKRKVDPKKKRKVGGDPERQVKIWFQNRRMKMKKINGDPVSQVSNWFGNKRIRYKKNIG
Consider B3, for which the “Median Survival days” value in test [2] is recorded as 62 days.

B4: Fusion protein 10: HFP-3XNLS-Full SID, SEQ ID NO: 45 (protein)
chain: DPERQVKIWFQNRRMKMKKINGGGDPVSQVSNWFGNKRIRYKKNIGGGDPKKKRKVDPKKKRKVDPKKKRKVATAVGMNIQLLLEAADYLERREREAEHGYASMLPY
Take B4: the Activity result in test [1] is reported as “✓”.

B5: S2: SID-3XNLS-GG linker-HoxA9-GG-PBX fusion protein, SEQ ID NO: 29 (protein)
chain: MATAVGMNIQLLLEAADYLERREREAEHGYASMLPYDPKKKRKVDPKKKRKVDPKKKRKVGGDPERQVKIWFQNRRMKMKKINGGDPVSQVSNWFGNKRIRYKKNIG
For the molecule B5, the “Median Survival days” value in test [2] was 67 days. Further, the “growth phenotype (growth deficit / growth inhibition)” value in test [1] (setting [6]) was “more growth deficit”.

B6: S3: Full SID-3XNLS-HFP with GGG linker, SEQ ID NO: 30 / 35 (protein)
chain: MATAVGMNIQLLLEAADYLERREREAEHGYASMLPYDPKKKRKVDPKKKRKVDPKKKRKVGGDPERQVKIWFQNRRMKMKKINGGGDPVSQVSNWFGNKRIRYKKNIG
B6: the “cell-surface expression of myeloid differentiation markers Mac-1 and Gr-1” value in test [3] (setting [7]) was “increases in cell-surface expression of myeloid differentiation markers”; in test [3] (listed as repressor HFP) it was “increases expression of Gr-1 and Mac-1 differentiation markers”. The “surface expression of Flt3 receptor” value in test [3] (setting [7]) is on record as “decreased surface expression”; in test [3] (listed as repressor HFP), “decreases expression of Flt3 receptor”. Moreover, the “transcripts of Hoxa9 target genes” value is given as “suppresses multiple targets of Hoxa9; also recorded: suppresses transcripts of Hoxa9 target genes” in test [4] and “suppression of direct Hoxa9 transcriptional target genes” in test [4] (setting [7]). For the same molecule, the “mRNA levels of differentiation-specific genes” value in test [5] was “higher mRNA levels”; in test [5] (setting [7]), “mRNA upregulation of differentiation-specific genes”; in test [5] (listed as repressor), “elevates differentiation-specific genes”. Besides, the “Median Survival days” value in test [2] is recorded as 94 days. For the same molecule, the “AML latency in vivo” value in test [2] is “longer latency in vivo that was statistically significant”; in test [2] (listed as HFP repressor), “significantly longer latency”; in test [2] (listed as repressor) it was “longer latency”. Moreover, the “growth phenotype (growth deficit / growth inhibition)” value in test [1] (setting [6]) is “more growth deficit”; in test [1] (Hoxa9-Meis1 cells, retroviral expression, listed as HFP), “significant growth defects”. In addition, the Activity entry in test [1] is listed as “✓”. Further, the “HFP-expressing cells as % of the population” value in test [1] (by day 8, IRES GFP vector, GFP vector control 80%) worked out at 2%.

B7: S3 mutant: S3 with DNA base contact residues mutated to alanine, SEQ ID NO: 33 (HFP domain) / 46 (protein)
chain: MATAVGMNIQLLLEAADYLERREREAEHGYASMLPYDPKKKRKVDPKKKRKVDPKKKRKVGGDPERQVKAWFAARRAKMKKINGGGDPVSQVSAWFGAKRIAYKKNIG
Regarding B7, the “transcripts of Hoxa9 target genes” value in test [4] (listed as mutant construct) is “little to no repression”. Also, the “growth phenotype (growth deficit / growth inhibition)” value in test [1] (setting [6]) is “less growth inhibition”.

B8: S4: SID-3XNLS-GG linker-HoxA9-GGGG-PBX fusion protein, SEQ ID NO: 31 (protein)
chain: MATAVGMNIQLLLEAADYLERREREAEHGYASMLPYDPKKKRKVDPKKKRKVDPKKKRKVGGDPERQVKIWFQNRRMKMKKINGGGGDPVSQVSNWFGNKRIRYKKNIG
B8: the “Median Survival days” value in test [2] is 69 days.
